The source of these data is patent US7966133B2, “Method of identifying a potential substrates of an O-methyltransferase” (The Salk Institute for Biological Studies, priority 2000, dated 2011).

“Also recorded” adds a separate entry of the source.

For one series, the system named is nod genes. As to conditions: among compounds released from alfalfa roots; via nodD1 and nodD2; cited from earlier work.
For series [1] the following is noted: aqueous solution; cited from earlier work.
Another series concerns IOMT. Description: Qualitative enzyme activity assay, IOMT (14C-SAM, TLC autoradiography). The series is classed as biochemical, Medicago sativa L. The following applies: expressed in E. coli.
A further series deals with ChOMT. In words: Qualitative enzyme activity assay, ChOMT (14C-SAM, TLC autoradiography). It is filed as biochemical, Medicago sativa L. The following applies: 20 μg protein, 500 μM 2′,4,4′-trihydroxychalcone, 500 μM 14C-SAM, 2 hr room temperature; FIG. 7A.

`COc1cc(O)ccc1C(=O)/C=C/c1ccc(O)cc1` [4,4′-dihydroxy-2′-methoxychalcone]: the “transcriptional activation of nod genes” value in the series with nod genes is “most efficient transcriptional activator”.
Consider `O=C1c2ccc(O)cc2OC(O)C1c1ccc(O)cc1` (centres unmarked) [2,7,4′-trihydroxyisoflavanone], for which, in series [1], the aqueous stability entry was “lack of aqueous stability; also recorded: unstable in aqueous solution”.

B1: IOMT: Isoflavone O-methyltransferase (SEQ ID NO:4) from Medicago sativa L, recombinant wild type (protein, listed as Medicago sativa)
chain: MASSINGRKPSEIFKAQALLYKHIYAFIDSMSLKWAVGMNIPNIIHNHGKPISLSNLVSILQVPSSKIGNVRRLMRYLAHNGFFEIITKEEESYALTVASELLVRGSDLCLAPMVECVLDPTLSGSYHELKKWIYEEDLTLFGVTLGSGFWDFLDKNPEYNTSFNDAMASDSKLINLALRDCDFVFDGLESIVDVGGGTGTTAKIICETFPKLKCIVFDRPQVVENLSGSNNLTYVGGDMFTSIPNADAVLLKYILHNWTDKDCLRILKKCKEAVTNDGKRGKVTIIDMVINEKKDENQVTQIKLLMDVNMACLNGKERNEEEWKKLFIEAGFQHYKISPLTGFLSLIEIYP
With B1, the “specific activity of recombinant IOMT” value with IOMT was “comparable to published values”.

B2: H278L: ChOMT catalytic histidine mutant, His 278 to leucine (protein, listed as Medicago sativa)
chain: MGNSYITKEDNQISATSEQTEDSACLSAMVLTTNLVYPAVLNAAIDLNLFEIIAKATPPGAFMSPSEIASKLPASTQHSDLPNRLDRMLRLLASYSVLTSTTRTIEDGGAERVYGLSMVGKYLVPDESRGYLASFTTFLCYPALLQVWMNFKEAVVDEDIDLFKNVHGVTKYEFMGKDKKMNQIFNKSMVDVCATEMKRMLEIYTGFEGISTLVDVGGGSGRNLELIISKYPLIKGINFDLPQVIENAPPLSGIEHVGGDMFASVPQGDAMILKAVCLNWSDEKCIEFLSNCHKALSPNGKVIIVEFILPEEPNTSEESKLVSTLDNLMFITVGGRERTEKQYEKLSKLSGFSKFQVACRAFNSLGVMEFYK
For the molecule B2, in the series with ChOMT, the “methyltransferase activity of ChOMT His 278 mutants” value (“methyltransferase activity” below) was “completely eliminated methyltransferase activity”.

B3: H278K: ChOMT catalytic histidine mutant, His 278 to lysine (protein, listed as Medicago sativa)
chain: MGNSYITKEDNQISATSEQTEDSACLSAMVLTTNLVYPAVLNAAIDLNLFEIIAKATPPGAFMSPSEIASKLPASTQHSDLPNRLDRMLRLLASYSVLTSTTRTIEDGGAERVYGLSMVGKYLVPDESRGYLASFTTFLCYPALLQVWMNFKEAVVDEDIDLFKNVHGVTKYEFMGKDKKMNQIFNKSMVDVCATEMKRMLEIYTGFEGISTLVDVGGGSGRNLELIISKYPLIKGINFDLPQVIENAPPLSGIEHVGGDMFASVPQGDAMILKAVCKNWSDEKCIEFLSNCHKALSPNGKVIIVEFILPEEPNTSEESKLVSTLDNLMFITVGGRERTEKQYEKLSKLSGFSKFQVACRAFNSLGVMEFYK
For the molecule B3, in the series with ChOMT, the “methyltransferase activity” value is “completely eliminated methyltransferase activity”.

B4: H278A: ChOMT catalytic histidine mutant, His 278 to alanine (protein, listed as Medicago sativa)
chain: MGNSYITKEDNQISATSEQTEDSACLSAMVLTTNLVYPAVLNAAIDLNLFEIIAKATPPGAFMSPSEIASKLPASTQHSDLPNRLDRMLRLLASYSVLTSTTRTIEDGGAERVYGLSMVGKYLVPDESRGYLASFTTFLCYPALLQVWMNFKEAVVDEDIDLFKNVHGVTKYEFMGKDKKMNQIFNKSMVDVCATEMKRMLEIYTGFEGISTLVDVGGGSGRNLELIISKYPLIKGINFDLPQVIENAPPLSGIEHVGGDMFASVPQGDAMILKAVCANWSDEKCIEFLSNCHKALSPNGKVIIVEFILPEEPNTSEESKLVSTLDNLMFITVGGRERTEKQYEKLSKLSGFSKFQVACRAFNSLGVMEFYK
With B4, in the series on ChOMT, the “methyltransferase activity” value is “completely eliminated methyltransferase activity”.

B5: H278N: ChOMT catalytic histidine mutant, His 278 to asparagine (protein, listed as Medicago sativa)
chain: MGNSYITKEDNQISATSEQTEDSACLSAMVLTTNLVYPAVLNAAIDLNLFEIIAKATPPGAFMSPSEIASKLPASTQHSDLPNRLDRMLRLLASYSVLTSTTRTIEDGGAERVYGLSMVGKYLVPDESRGYLASFTTFLCYPALLQVWMNFKEAVVDEDIDLFKNVHGVTKYEFMGKDKKMNQIFNKSMVDVCATEMKRMLEIYTGFEGISTLVDVGGGSGRNLELIISKYPLIKGINFDLPQVIENAPPLSGIEHVGGDMFASVPQGDAMILKAVCNNWSDEKCIEFLSNCHKALSPNGKVIIVEFILPEEPNTSEESKLVSTLDNLMFITVGGRERTEKQYEKLSKLSGFSKFQVACRAFNSLGVMEFYK
As for B5, the “methyltransferase activity” value in the series on ChOMT is on record as “completely eliminated methyltransferase activity”.

B6: H278Q: ChOMT catalytic histidine mutant, His 278 to glutamine (protein, listed as Medicago sativa)
chain: MGNSYITKEDNQISATSEQTEDSACLSAMVLTTNLVYPAVLNAAIDLNLFEIIAKATPPGAFMSPSEIASKLPASTQHSDLPNRLDRMLRLLASYSVLTSTTRTIEDGGAERVYGLSMVGKYLVPDESRGYLASFTTFLCYPALLQVWMNFKEAVVDEDIDLFKNVHGVTKYEFMGKDKKMNQIFNKSMVDVCATEMKRMLEIYTGFEGISTLVDVGGGSGRNLELIISKYPLIKGINFDLPQVIENAPPLSGIEHVGGDMFASVPQGDAMILKAVCQNWSDEKCIEFLSNCHKALSPNGKVIIVEFILPEEPNTSEESKLVSTLDNLMFITVGGRERTEKQYEKLSKLSGFSKFQVACRAFNSLGVMEFYK
As for B6, in the series on ChOMT, the “methyltransferase activity” value was “completely eliminated methyltransferase activity”.
